# Patent US20120093813A1 (Pfizer, published 2012)
# Several values for one entry are separate records, joined by “and”; a condition that tells them apart may be missing. Equal entries are not always repeated.
# T1: human Notch1-NRRHD (human, UniProt P46531 19-43; P46531 1446-1733)
# T1 construct: domain: Notch1-NRRHD (nucleotide 1-129);domain: Notch1-NRRHD (nucleotide 4338-5202); If counted from the start codon they are about residues 1-43 and 1447-1734 (my conversion); Used as conditioned medium; also called huN1-NRRHD; human Notch1 antigen
# T1 sequence (looked up): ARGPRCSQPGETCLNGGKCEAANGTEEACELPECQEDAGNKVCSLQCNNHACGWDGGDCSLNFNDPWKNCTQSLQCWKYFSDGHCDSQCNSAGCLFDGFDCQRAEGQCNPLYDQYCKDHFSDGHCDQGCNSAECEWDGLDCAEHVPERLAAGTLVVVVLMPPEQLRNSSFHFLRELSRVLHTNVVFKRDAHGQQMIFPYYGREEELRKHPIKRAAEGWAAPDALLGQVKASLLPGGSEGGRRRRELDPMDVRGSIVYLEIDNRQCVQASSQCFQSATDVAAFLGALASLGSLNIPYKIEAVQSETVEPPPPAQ
# T2: murine Notch1-NRRHD (mouse, UniProt Q01705 19-33; Q01705 1443-1723)
# T2 construct: domain: Notch1-NRRHD (nucleotide 1-99);domain: Notch1-NRRHD (nucleotide 4327 to 5169); Nucleotide limits only; if counted from the start codon they are residues 1-33 and 1443-1723 (my conversion); Used as conditioned medium; also called MuN1-NRRHD; mouse Notch1
# T2 sequence (looked up): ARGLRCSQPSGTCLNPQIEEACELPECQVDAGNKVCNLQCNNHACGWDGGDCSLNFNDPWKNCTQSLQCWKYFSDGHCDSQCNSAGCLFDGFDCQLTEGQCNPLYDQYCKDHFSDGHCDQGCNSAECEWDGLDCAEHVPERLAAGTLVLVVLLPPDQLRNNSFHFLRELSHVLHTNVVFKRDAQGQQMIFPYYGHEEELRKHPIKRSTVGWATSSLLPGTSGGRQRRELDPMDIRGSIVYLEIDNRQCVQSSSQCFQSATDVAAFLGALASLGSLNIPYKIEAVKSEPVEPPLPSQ
# T3: N1-NRR-TM(-)/Fc fusion protein (human)
# T3 construct: Secreted from 293-F cells, purified on protein G; also called Notch1-NRR-TM(-)/Fc; N1-NRR-TM(-)Fc protein; not shown: Human Fc of the Fc-fusion vector, fused C-terminal of the immunogen, plus any junction residues
# T3 chain: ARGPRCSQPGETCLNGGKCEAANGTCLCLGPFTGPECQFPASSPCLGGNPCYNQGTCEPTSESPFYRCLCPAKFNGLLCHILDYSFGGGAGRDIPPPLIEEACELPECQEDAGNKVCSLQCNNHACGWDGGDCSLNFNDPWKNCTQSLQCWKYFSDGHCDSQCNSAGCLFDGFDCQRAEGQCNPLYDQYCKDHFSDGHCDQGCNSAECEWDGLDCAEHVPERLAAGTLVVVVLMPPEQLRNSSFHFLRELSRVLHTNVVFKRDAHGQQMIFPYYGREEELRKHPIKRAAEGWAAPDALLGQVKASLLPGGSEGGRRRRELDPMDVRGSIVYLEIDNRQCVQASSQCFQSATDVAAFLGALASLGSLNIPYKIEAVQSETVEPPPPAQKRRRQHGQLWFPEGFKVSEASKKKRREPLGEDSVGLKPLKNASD
# Key:
# Notch1 of HPB-ALL cells = Notch1 of HPB-ALL cells (human, UniProt P46531 19-2555); experiment: cell-based or functional assay
# human Notch1-NRRHD = molecular target: T1, human Notch1-NRRHD; experiment: ELISA on coated conditioned medium
# From the text: (§1) We further made domain-swap chimeric Notch1-NRRHD expression constructs using the human Notch1-NRRHD sequence (Nucleotide 1-129 and 4338-5202, NCBI Accession # NM_{—}017617) as frame work, systematically exchanged the human Lin-A, Lin-B or HD-C domains with the corresponding mouse domains.
# murine Notch1-NRRHD [1] = molecular target: T2, murine Notch1-NRRHD; experiment: ELISA on coated conditioned medium
# From the text: as §1
# [2] = molecular target: T4, Notch1 chimeric antigen, Lin-B domain swapped with murine sequence; experiment: ELISA on coated conditioned medium
# T4 construct: also called Mu/Lin-B
# From the text: as §1
# [3] = molecular target: T5, Notch1 chimeric antigen, HD-C domain swapped with murine sequence; experiment: ELISA on coated conditioned medium
# T5 construct: also called Mu/HD-C
# From the text: as §1
# [4] = molecular target: T3, N1-NRR-TM(-)/Fc fusion protein; experiment: SPR, Biacore 3000, N1-NRR-TM(-)Fc captured on Protein A, mAb injected
# Description: Protein A was amine-coupled at saturating levels onto the chip using a standard N-hydroxysuccinimide/ethyldimethylaminopropyl carbodiimide (NHS/EDC) chemistry. N1-NRR-TM(−)Fc protein (described in Example 1) was captured to the chip surface by Protein A in all three flow cells at 40, 13, 4 ug/ml. […] Dissociation was monitored for 20 minutes. The chip was regenerated after the last injection of each titration with two 30 second pulses of 100 mM phosphoric acid. Buffer cycles provided blanks for double-referencing the data, which were then fit globally to a simple binding model using Biaevaluation software v.4.1. Affinities were deduced from the quotient of the kinetic rate constants (KD=koff/kₒₙ).
# [5] = molecular target: T6, Notch1 chimeric antigen, Lin-A domain swapped with corresponding Notch2 domain; experiment: ELISA, conditioned medium of chimeric antigen coated, 300 ng mAb per well
# T6 construct: Used as conditioned medium of transfected 293-F cells
# Description: (§2) For understanding the mechanism of action by Notch1-antagonist mAb, binding epitopes of Notch1-antagonist mAbs were analyzed by domain swap and ELISA binding assay. The Notch1-NRR-TM(−)/Fc protein was divided into six domains: EGF (including EGF35-36), Lin12-A (or Lin-A), Lin-B, Lin-C, heterodimerization domain-N (or HD-N) and HD-C (FIG. 5). Each of the domains were swapped for that corresponding to human Notch2 by PCR synthesis in a series of chimeric Notch1-NRR-TM(−)/Fc expression constructs. The domain-swap plasmids were transfected in Freestyle™ 293-F cells (Invitrogen, Inc., Calsbad, Calif.) using Freestyle™ Max Reagent (Invitrogen) as described above in Example 1. After being cultured for three days, the conditioned media was subjected to Western blot analysis and an ELISA binding assay by Notch1 mAbs.
# (§3) In ELISA assay, the 100 microliters of the conditioned medium from the above antigen plasmids-transfected cell culture were loaded in each well of the 96-well plate, and plates were incubated at room temperature for 4 hours or 4° C. for overnight. The condition medium was then removed from the coated plates. For primary antibody binding, 300 ng of each mAb (Table 3) in 100 microliters of PBS was added to the coated well. The rest of the ELISA procedure is the same as described in Example 2.
# [6] = molecular target: T7, Notch1 chimeric antigen, Lin-C domain swapped with corresponding Notch2 domain; experiment: as above
# T7 construct: Used as conditioned medium of transfected 293-F cells
# Description: as §2, §3
# [7] = molecular target: T8, Notch1 chimeric antigen, HD-N domain swapped with corresponding Notch2 domain; experiment: as above
# T8 construct: Used as conditioned medium of transfected 293-F cells
# Description: as §2, §3
# [8] = molecular target: T9, Notch1 chimeric antigen, HD-C domain swapped with corresponding Notch2 domain; experiment: as above
# T9 construct: Used as conditioned medium of transfected 293-F cells
# Description: as §2, §3
# [9] = molecular target: T10, Notch1 chimeric antigen, EGF domain swapped with corresponding Notch2 domain; experiment: as above
# T10 construct: Used as conditioned medium of transfected 293-F cells
# Description: as §2, §3
# murine Notch1-NRRHD [10] = molecular target: T2, murine Notch1-NRRHD; experiment: heading printed under Table 3; it introduces the following ELISA experiment with human and murine Notch1-NRRHD
# From the text: as §1
binder,measurement,setting,value
"mouse monoclonal antibody N248A (antibody, IgG1, V domains shown, treated as one antibody; also called mAb N248A; N248A1) VH: QVQLQQSGAELMKPGASVKISCKATGYTFSNYWMEWVKQRPGHGLEWIGEILPGRGRTNYNENFKGKATFTADTSSNTVYMQLNSLTSEDSAVYYCARFHSSAYYYTMDYWGQRTSVTVSS VL: QAVVTQESALTTSPGETVTLTCRSSTGAVTTSNYANWVQEKPDHLFTGLIGGTNNRAPGIPARFSGSLIGDKAALTITGAQTEDEAIYFCALWYSNHWVFGGGTKLTVL","IC50 of cell growth inhibition, HPB-ALL cells, 7 days",Notch1 of HPB-ALL cells,~0.78 µg/ml and ~5.2 nM
same,ELISA reading,human Notch1-NRRHD,3.13
same,ELISA reading,murine Notch1-NRRHD [1],0.17
same,ELISA reading,[2],3.37
same,ELISA reading,[3],3.17
same,Kd,[4],< 0.33 nM
same,koff,[4],< 0.00017 s⁻¹
same,ELISA reading,[5],0.05
same,ELISA reading,[6],3.48
same,ELISA reading,[7],3.52
same,ELISA reading,[8],0.04
same,ELISA reading,[9],3.51
same,binding result,murine Notch1-NRRHD [10],no binding
